Data on one substance can be found in IntAct's records for PubMed 17408621.

The target of this assay is ccnb2_human CCNB2 (UniProt O95067).
UniProt O95067, sequence (O95067 whole entry): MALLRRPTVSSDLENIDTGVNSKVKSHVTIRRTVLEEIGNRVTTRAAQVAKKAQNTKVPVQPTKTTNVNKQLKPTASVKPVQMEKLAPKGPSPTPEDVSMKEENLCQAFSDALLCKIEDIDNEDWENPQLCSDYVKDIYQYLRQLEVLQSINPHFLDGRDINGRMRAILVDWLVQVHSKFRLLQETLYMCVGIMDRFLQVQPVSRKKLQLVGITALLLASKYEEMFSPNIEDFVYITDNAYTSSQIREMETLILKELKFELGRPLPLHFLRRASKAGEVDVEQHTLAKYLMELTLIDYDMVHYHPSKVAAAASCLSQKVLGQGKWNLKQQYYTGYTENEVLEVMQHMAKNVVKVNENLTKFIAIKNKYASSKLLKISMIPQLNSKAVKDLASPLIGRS

With Filamin-A (Homo sapiens), P21333 S1436G, the “effect of a mutation on the interaction” value is on record as “disrupting interaction”.
